According to patent publication US20220106360A1 (UNIVERSITY OF PITTSBURGH OF THE COMMONWEALTH SYSTEM OF …, published 2022):

T1: VAPA 1-242 expressed from pEGFP-N1-VAPA; 1-242 (Addgene #18874) in HEK293 cells (UniProt Q9Z270 1-242)
T1 construct: range 1-242; Used as a whole lysate of transfected HEK293 cells (1 mg/ml total protein), detected with anti-VAPA antibody; also called VAMP-associated protein A; VAPA proteins; not shown: EGFP implied by the vector name pEGFP-N1
T1 sequence (looked up): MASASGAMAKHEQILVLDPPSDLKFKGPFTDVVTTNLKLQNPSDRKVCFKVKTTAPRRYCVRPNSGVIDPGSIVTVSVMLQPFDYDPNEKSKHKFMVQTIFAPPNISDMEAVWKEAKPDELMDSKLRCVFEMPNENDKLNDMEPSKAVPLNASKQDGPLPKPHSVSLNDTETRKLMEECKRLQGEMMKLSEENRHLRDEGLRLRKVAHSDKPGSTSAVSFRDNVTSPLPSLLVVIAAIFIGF

T2: Kv2.1 (endogenous, rat cortical neurons) (rat, UniProt P15387 1-857)
T2 construct: Endogenous channel in fixed, permeabilised primary cortical neurons of Sprague-Dawley rats, detected with a rabbit anti-Kv2.1 antibody; also called delayed-rectifying voltage-gated potassium channel Kv2.1
T2 sequence: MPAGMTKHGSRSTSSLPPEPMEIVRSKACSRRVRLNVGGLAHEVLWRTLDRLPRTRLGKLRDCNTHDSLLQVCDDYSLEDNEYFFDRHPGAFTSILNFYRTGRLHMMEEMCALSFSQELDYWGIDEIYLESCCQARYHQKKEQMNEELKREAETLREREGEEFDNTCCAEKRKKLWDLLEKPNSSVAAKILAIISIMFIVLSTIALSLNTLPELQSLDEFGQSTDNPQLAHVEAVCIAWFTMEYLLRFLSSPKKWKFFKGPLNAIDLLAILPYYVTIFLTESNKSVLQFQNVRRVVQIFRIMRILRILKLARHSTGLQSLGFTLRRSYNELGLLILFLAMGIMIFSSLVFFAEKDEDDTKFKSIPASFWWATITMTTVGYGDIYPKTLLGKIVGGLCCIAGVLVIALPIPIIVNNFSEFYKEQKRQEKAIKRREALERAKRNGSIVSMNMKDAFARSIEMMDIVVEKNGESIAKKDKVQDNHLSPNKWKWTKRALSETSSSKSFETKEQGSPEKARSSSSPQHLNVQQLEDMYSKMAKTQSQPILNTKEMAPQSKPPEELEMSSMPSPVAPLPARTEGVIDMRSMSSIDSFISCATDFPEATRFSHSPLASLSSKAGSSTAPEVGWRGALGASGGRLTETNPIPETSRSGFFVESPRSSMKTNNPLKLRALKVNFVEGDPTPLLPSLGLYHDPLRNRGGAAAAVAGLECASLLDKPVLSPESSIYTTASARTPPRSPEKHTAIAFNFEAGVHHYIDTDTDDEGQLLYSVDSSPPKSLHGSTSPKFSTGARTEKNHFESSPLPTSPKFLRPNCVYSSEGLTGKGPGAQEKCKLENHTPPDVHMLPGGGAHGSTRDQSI

B1: non-canonical FFAT motif of Kv2.1 (SFISCAT) (peptide)
peptide: SFISCAT
notes: The text says it was tested on the peptide array
B2: non-canonical FFAT motif of Kv2.2 (SFTSCAT) (peptide)
peptide: SFTSCAT
B3: DP-2 peptide (SIDSFTS) (peptide)
peptide: SIDSFTS
notes: Synthesised and spotted on Celluspots membrane through a polyethylene glycerol spacer (peptide spot array); also called declustering peptide 2
B4: Ser to Asp mutant of DP-2 (DIDDFTD) (peptide)
peptide: DIDDFTD
B5: Ser to Asp mutant of DP-2 (DIDDFTS) (peptide)
peptide: DIDDFTS
B6: Ser to Asp mutant of DP-2 (SIDDFTS) (peptide)
peptide: SIDDFTS
B7: Ser to Asp mutant of DP-2 (SIDSFTD) (peptide)
peptide: SIDSFTD
B8: Ser to Asp mutant of DP-2 (DIDSFTD) (peptide)
peptide: DIDSFTD
B9: Ser to Glu mutant of DP-2 (EIDSFTE) (peptide)
peptide: EIDSFTE
B10: Ser to Glu mutant of DP-2 (SIDEFTS) (peptide)
peptide: SIDEFTS
B11: Ser to Asp mutant of DP-2 (SIDDFTD) (peptide)
peptide: SIDDFTD
B12: Ser to Glu mutant of DP-2 (EIDEFTS) (peptide)
peptide: EIDEFTS
B13: Ser to Glu mutant of DP-2 (SIDEFTE) (peptide)
peptide: SIDEFTE
B14: Ser to Glu mutant of DP-2 (SIDSFTE) (peptide)
peptide: SIDSFTE
B15: Ser to Glu mutant of DP-2 (EIDEFTE) (peptide)
peptide: EIDEFTE
B16: Ser to Asp mutant of DP-2 (DIDSFTS) (peptide)
peptide: DIDSFTS
B17: Ser to Glu mutant of DP-2 (EIDSFTS) (peptide)
peptide: EIDSFTS
B18: VAPA (endogenous, rat cortical neurons) (other, UniProt Q9Z270 2-249, looked up)
chain: ASASGAMAKHEQILVLDPPSDLKFKGPFTDVVTTNLKLQNPSDRKVCFKVKTTAPRRYCVRPNSGVIDPGSIVTVSVMLQPFDYDPNEKSKHKFMVQTIFAPPNISDMEAVWKEAKPDELMDSKLRCVFEMPNENDKLNDMEPSKAVPLNASKQDGPLPKPHSVSLNDTETRKLMEECKRLQGEMMKLSEENRHLRDEGLRLRKVAHSDKPGSTSAVSFRDNVTSPLPSLLVVIAAIFIGFFLGKFIL
notes: whole, on cells; Endogenous ER protein inside fixed, permeabilised neurons, detected with a mouse anti-VAPA antibody; also called VAMP-associated protein A

Each binder was assayed against T1, VAPA 1-242 expressed from … (assay: peptide spot array (far western) with lysate of HEK293 cells expressing VAPA 1-242, anti-VAPA detection).
Method: Standard 9-fluorenylmethoxy carbonyl chemistry was used to synthesize peptides and spot them onto Celluspots nitrocellulose disks prederivatized with a polyethylene glycerol spacer (Intavis), using the Respep peptide synthesizer. The peptides were spotted on 20 membranes fitted on microscope glass slides (Intavis) using an Intavis MultiPep robot. For hybridization and immunoblotting of arrays, Celluspots slides were washed in TBST (50 mM Tris-HCl, pH 7.4, 150 mM NaCl, 0.1% Tween 20) for 10 minutes, […] blocked for 1 hour at room temperature (RT) with gentle shaking in TBST containing 5% nonfat dry milk. Lysates from HEK293 cells transfected as before (Yeh et al., J Neurosci. 37: 5648-5658, 2017; Yeh et al., Proc Natl Acad Sci USA. 116: 15696-15607, 2019; Dustrude et al., Proc Natl Acad Sci USA. 113: E8443-E8452, 2016) with pEGFP-N1-VAPA; 1-242 (Addgene #18874) were made in 20 mM Tris, 50 mM NaCl, 2 mM MgCl₂, 1% Tergitol, 0.5% sodium deoxycholate, 0.1% sodium dodecyl sulfate with protease (Cat #B14002, Bimake), phosphatase (Cat #B15002, Bimake) inhibitor cocktails and 5 U/ml of universal nuclease (Cat #88702, Thermofisher) added extemporaneously. The concentration of lysates was measured by BCA (Cat #23227, Thermofisher) and peptide arrays were incubated with 1 mg/ml of total protein overnight at 4° C. (Yeh et al., J Neurosci. 37: 5648-5658, 2017; Yeh et al., Proc Natl Acad Sci USA. 116: 15696-15607, 2019; Moutal et al., Pain. 158: 2203-2221, 2017). Peptide arrays were washed 3 times for 5 minutes at RT with TBST and incubated with the primary antibody anti-VAPA (RRID AB_2722707; UC Davis/NIH NeuroMab Facility) for 2 hours at RT with gentle shaking in TBST, 5% BSA. After washing with TBST, the membranes were incubated in secondary antibody (IRDye® 800CW goat anti-mouse IgG secondary antibody; RRID AB_621842; Li-Cor) for 45 minutes, washed 3 times for 5 minutes in TBST, and visualized by infrared fluorescence (Li-Cor). Four independent peptide spot arrays were used in this study. Fluorescence intensity was analyzed with Image studio (Li-Cor).

Binder | binding result
B1 | no binding (tested: lysate at 1 mg/ml of total protein)
B2 | no binding (tested: lysate at 1 mg/ml of total protein)
B3 | no binding (tested: lysate at 1 mg/ml of total protein)
B4 | no binding (tested: lysate at 1 mg/ml of total protein)
B5 | no binding (tested: lysate at 1 mg/ml of total protein)
B6 | no binding (tested: lysate at 1 mg/ml of total protein)
B7 | no binding (tested: lysate at 1 mg/ml of total protein)
B8 | no binding (tested: lysate at 1 mg/ml of total protein)
B9 | no binding (tested: lysate at 1 mg/ml of total protein)
B10 | no binding (tested: lysate at 1 mg/ml of total protein)
B11 | no binding (tested: lysate at 1 mg/ml of total protein)
B12 | no binding (tested: lysate at 1 mg/ml of total protein)
B13 | no binding (tested: lysate at 1 mg/ml of total protein)
B14 | no binding (tested: lysate at 1 mg/ml of total protein)
B15 | no binding (tested: lysate at 1 mg/ml of total protein)
B16 | no binding (tested: lysate at 1 mg/ml of total protein)
B17 | no binding (tested: lysate at 1 mg/ml of total protein)

The binders below were run against T2, Kv2.1 (endogenous, rat cortical neurons) (assay: proximity ligation assay in fixed rat cortical neurons).
Method: Duolink proximity ligation assay (PLA) technology (Sigma-Aldrich, St. Louis, Mo.) was utilized to assess in situ protein-protein interaction between Kv2.1 and vesicle-associated molecular protein (VAMP)-associated protein A (VAPA). Primary cortical neurons on glass coverslips were treated in 24-well plates with vehicle (dH₂O), TAT-Sc-2 (10 μM), or TAT-DP-2 (10 μM) for 2 hours at 37° C./5% CO₂. Neurons were then rinsed with 2 mL ice-cold sterile PBS and then transferred to 1 mL 4% paraformaldehyde (PFA) in PBS for 20 minutes to fix. Coverslips were transferred to 1 mL 0.1 M glycine (in PBS) to quench fixation and rinsed three times in 1 mL PBS. Membrane permeabilization was accomplished with 1 mL 0.25% Triton X-100 (Sigma-Aldrich, St. Louis, Mo.) and non-specific binding was blocked with 10% bovine serum albumin (in PBS) for 30 minutes. Primary immunolabeling was accomplished by 18-24 hour exposure to rabbit anti-Kv2.1 polyclonal antibody (1:500 in 3% BSA; RRID AB_2040162; Alomone Labs, Jerusalem, Israel), mouse anti-VAPA monoclonal antibody (1:500 in 3% BSA; RRID AB_2722702; UC Davis/NeuroMab Facility), and chicken anti-MAP2 polyclonal antibody (1:1000 in 3% BSA; RRID AB_5392; Abcam, Cambridge, Mass.) in 3% BSA (in PBS) at 4° C. under gentle agitation. […]

binding result | Binder
binds | B18
